Experimental data reported in patent US20190175751A1 (UNIVERSITY OF UTAH RESEARCH FOUNDATION, published 2019).

Target: T1, FITC-HSA-MORF2 (human serum albumin grafted with multiple copies of morpholino MORF2, FITC-labelled) (human, UniProt P02768 25-609, a fraction of the amino groups converted with SM-(PEG)x to maleimido groups and carrying MORF2 via thioether bonds; FITC label)
T1 construct: mature; also called HSA-(MORF2)x; Nanoconjugate 2A
Experiment: confocal microscopy on CD20-expressing Raji cells, without Cy5-Fab′RTX-MORF1
From the text: Thus, we conducted in vitro confocal microscopy study, using CD20-expressing human NHL Raji B cell line (FIG. 7).

B1: CD20 on human Burkitt's B-cell non-Hodgkin's lymphoma Raji cells (receptor, UniProt P11836 1-297, looked up)
chain: MTTPRNSVNGTFPAEPMKGPIAMQSGPKPLFRRMSSLVGPTQSFFMRESKTLGAVQIMNGLFHIALGGLLMIPAGIYAPICVTVWYPLWGGIMYIISGSLLAATEKNSRKCLVKGKMIMNSLSLFAAISGMILSIMDILNIKISHFLKMESLNFIRAHTPYINIYNCEPANPSEKNSPSTQYCYSIQSLFLGILSVMLIFAFFQELVIAGIVENEWKRTCSRPKSNIVLLSAEEKKEQTIEIKEEVVGLTETSSQPKNEEDIEIIPIQEEEEEETETNFPEPPQDQESSPIENDSSP
notes: whole, on cells; also called CD20 antigen; CD20 receptor
  binding result: no binding
